The assay concerns the target DNMT3A (DNA methyltransferase 3A) (Homo sapiens (Human), UniProt Q9Y6K1 1-912). As to the kind of experiment: epitope mapping on a membrane of 12-mer DNMT3A peptides, 2 µg GST-ISGF3γ, fluorescence detection.

Chain of DNMT3A (DNA methyltransferase 3A) (Q9Y6K1 whole entry): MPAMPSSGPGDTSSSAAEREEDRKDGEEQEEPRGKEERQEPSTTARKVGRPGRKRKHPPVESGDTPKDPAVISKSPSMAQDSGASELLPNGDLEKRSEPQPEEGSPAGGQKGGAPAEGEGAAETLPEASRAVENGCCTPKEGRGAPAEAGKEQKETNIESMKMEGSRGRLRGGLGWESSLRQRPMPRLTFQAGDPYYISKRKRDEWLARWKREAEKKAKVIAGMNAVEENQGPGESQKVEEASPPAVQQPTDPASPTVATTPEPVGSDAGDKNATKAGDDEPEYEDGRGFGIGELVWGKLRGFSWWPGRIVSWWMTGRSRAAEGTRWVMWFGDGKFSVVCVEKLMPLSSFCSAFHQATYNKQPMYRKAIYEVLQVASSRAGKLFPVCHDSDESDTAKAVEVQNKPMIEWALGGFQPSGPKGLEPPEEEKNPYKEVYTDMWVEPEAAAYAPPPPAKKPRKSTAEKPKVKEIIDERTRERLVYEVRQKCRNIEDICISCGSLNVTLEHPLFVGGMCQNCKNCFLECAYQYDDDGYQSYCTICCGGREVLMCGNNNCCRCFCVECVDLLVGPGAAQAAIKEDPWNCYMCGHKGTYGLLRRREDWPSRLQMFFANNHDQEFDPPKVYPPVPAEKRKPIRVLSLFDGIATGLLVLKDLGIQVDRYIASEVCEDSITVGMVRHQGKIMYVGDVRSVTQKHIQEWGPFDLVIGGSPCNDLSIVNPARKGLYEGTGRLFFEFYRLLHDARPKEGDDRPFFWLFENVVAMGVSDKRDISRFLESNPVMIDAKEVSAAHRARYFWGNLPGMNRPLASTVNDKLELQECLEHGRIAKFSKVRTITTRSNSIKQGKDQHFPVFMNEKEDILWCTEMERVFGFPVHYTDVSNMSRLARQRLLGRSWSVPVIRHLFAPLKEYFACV
Experimental: Then, 2 μg of GST-ISGF3γ protein were incubated with the membrane.

B1: GST-ISGF3γ protein (other)
chain: MASGRARCTRKLRNWVVEQVESGQFPGVCWDDTAKTMFRIPWKHAGKQDFREDQDAAFFKAWAIFKGKYKEGDTGGPAVWKTRLRCALNKSSEFKEVPERGRMDVAEPYKVYQLLPPGIVSGQPGTQKVPSKRQHSSVSSERKEEEDAMQNCTLSPSVLQDSLNNEEEGASGGAVHSDIGSSSSSSSPEPQEVTDTTEAPFQGDQRSLEFLLPPEPDYSLLLTFIYNGRVVGEAQVQSLDCRLVAEPSGSESSMEQVLFPKPGPLEPTQRLLSQLERGILVASNPRGLFVQRLCPIPISWNAPQAPPGPGPHLLPSNECVELFRTAYFCRDLVRYFQGLGPPPKFQVTLNFWEESHGSSHTPQNLITVKMEQAFARYLLEQTPEQQAAILSLV
notes: Recombinant fusion used at 2 µg on the DNMT3A peptide membrane; not shown: GST (glutathione S-transferase) tag
Regarding B1, the binding result is recorded as “binds”.
